The supplement of paper PMC10201428
± gives the standard deviation of the averaged measurements.

What was measured:
[1] = system: VchCAST RNA-guided transposition machinery (E. coli BL21(DE3) host, lacZ target); assay: relative integration efficiency (T-RL orientation) vs wild-type transposon end (log2 (normalized fold change)); transposon end mutated: right end (5 bp flank + 75 bp right end); higher = more efficient transposition
How it was run: (§1)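 Relative integration efficiency is a fold change of output over input barcode abundance, normalised to reference barcodes and log-transformed. Input plasmids and genomic integration junctions were PCR-amplified and Illumina-sequenced from E. coli BL21(DE3) co-transformed with a T7-driven effector plasmid and pUC57 donor pools of 1549 left-end or 1849 right-end transposon variants. Plating was done with 0.1 mM IPTG at 37°C for 18 h, with two biological output replicates and four reference barcodes.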

[2] = system: VchCAST RNA-guided transposition machinery (E. coli BL21(DE3) host, lacZ target); assay: relative integration efficiency (T-LR orientation) vs wild-type transposon end (log2 (normalized fold change)); transposon end mutated: right end (5 bp flank + 75 bp right end); higher = more efficient transposition
How it was run: as §1

| Sequence | relative integration efficiency (log2) [1] | relative integration efficiency (log2) [2] |
| --- | --- | --- |
| ACATTTGTTGATACAACCATAAAATGATAATTACACCCATAAATTGATAATTCGACCACCCATAAATTGATATTGCCTCTGATCATAGTCAGACCAACATTGCTACGACCCGTATTCGCACCGACAC | -0.541 ± 0.14 | 0.317 ± 0.33 |
| ACATTTGTTGATACAACCATAAAATGATAATTACACCCATAAATTGATAATTCGCACACCCATAAATTGATATTGCCTCTGATCATAGTCAGACCAACATTGCTACGACCCGTATTCGCACCGACAC | -0.551 ± 0.065 | 0.189 ± 0.39 |
| ACATTTGTTGATACAACCATAAAATGATAATTACACCCATAAATTGATAATTGTGACACCGAATTTAACTATAACGCTCTGATCATAGTCAGACCAACATTGCTACGACCCGTATTCGCACCGACAC | -0.766 ± 0.25 | 2.87 ± 0.14 |
| ACATTTGTTGATACAACCATAAAATGATAATTACACCCATAAATTGATAATTTACACACCCATAAATTGATATTGCCTCTGATCATAGTCAGACCAACATTGCTACGACCCGTATTCGCACCGACAC | -0.0701 ± 0.25 | 0.268 ± 0.15 |
| ACATTTGTTGATACAACCATAAAATGATAATTACACCCATAAATTGATAATTTAGTCACCCATAAATTGATATTGCCTCTGATCATAGTCAGACCAACATTGCTACGACCCGTATTCGCACCGACAC | -0.447 ± 0.07 | 0.247 ± 0.11 |
| ACATTTGTTGATACAACCATAAAATGATAATTACACCCATAAATTGATAATTTCACACCCATAAATTGATATTGCCTCTGATCATAGTCAGACCAACATTGCTACGACCCGTATTCGCACCGACACT | -0.767 ± 0.17 | 0.745 ± 0.092 |
| ACATTTGTTGATACAACCATAAAATGATAATTACACCCATAAATTGATACGGCGACACAAACGCCCGGTCGCGGTAAGAGGATCATAGTCAGACCAACATTGCTACGACCCGTATTCGCACCGACAC | -0.726 ± 0.13 | 2.25 ± 0.24 |
| ACATTTGTTGATACAACCATAAAATGATAATTACACCCATAAATTGATACGGCTCACACCCATAAATTGATATTGCCTCTGATCATAGTCAGACCAACATTGCTACGACCCGTATTCGCACCGACAC | -0.622 ± 0.074 | 0.173 ± 0.15 |
| ACATTTGTTGATACAACCATAAAATGATAATTACACCCATAAATTGATACGTATCACACCCATAAATTGATATTGCCTCTGATCATAGTCAGACCAACATTGCTACGACCCGTATTCGCACCGACAC | -0.704 ± 0.012 | -0.44 ± 0.48 |
| ACATTTGTTGATACAACCATAAAATGATAATTACACCCATAAATTGATATAATTCACACCCATAAATTGATATTGCCTCTGATCATAGTCAGACCAACATTGCTACGACCCGTATTCGCACCGACAC | -0.233 ± 0.14 | 0.18 ± 0.19 |
| ACATTTGTTGATACAACCATAAAATGATAATTACACCCATAAATTGATATATATCACACCCATAAATTGATATTGCCTCTGATCATAGTCAGACCAACATTGCTACGACCCGTATTCGCACCGACAC | -0.313 ± 0.16 | 4.91e-05 ± 0.14 |
| ACATTTGTTGATACAACCATAAAATGATAATTACACCCATAAATTGATATCACACCCATAAATTGATATTGCCTCTGATCATAGTCAGACCAACATTGCTACGACCCGTATTCGCACCGACACTGAC | -1.06 ± 0.31 | 2.45 ± 0.18 |
| ACATTTGTTGATACAACCATAAAATGATAATTACACCCATAAATTGATATTGCTCACAACCATAAAATGATAATTACTCTGATCATAGTCAGACCAACATTGCTACGACCCGTATTCGCACCGACAC | -0.532 ± 0.27 | 0.106 ± 0.059 |
| ACATTTGTTGATACAACCATAAAATGATAATTACACCCATAAATTGATATTGCTCACAACCATAAAGTGATATTTACTCTGATCATAGTCAGACCAACATTGCTACGACCCGTATTCGCACCGACAC | -0.424 ± 0.093 | 0.269 ± 0.25 |
| ACATTTGTTGATACAACCATAAAATGATAATTACACCCATAAATTGATATTGCTCACAACCATAAGTTGATATTTTCTCTGATCATAGTCAGACCAACATTGCTACGACCCGTATTCGCACCGACAC | -0.473 ± 0.17 | 0.538 ± 0.11 |
| ACATTTGTTGATACAACCATAAAATGATAATTACACCCATAAATTGATATTGCTCACAACCATATATTGATATCTCCTCTGATCATAGTCAGACCAACATTGCTACGACCCGTATTCGCACCGACAC | -0.74 ± 0.17 | 0.579 ± 0.21 |
| ACATTTGTTGATACAACCATAAAATGATAATTACACCCATAAATTGATATTGCTCACACCCATAAATTGATAATTACTCTGATCATAGTCAGACCAACATTGCTACGACCCGTATTCGCACCGACAC | -0.432 ± 0.2 | 0.634 ± 0.033 |
| ACATTTGTTGATACAACCATAAAATGATAATTACACCCATAAATTGATATTGCTCACACCCATAAATTGATATTGCCTCTGATCATAGTCAGACCAACATTGCTACGACCCGTATTCGCACCGACAC | -0.394 ± 0.045 | 0.786 ± 0.29 |

| Sequence | relative integration efficiency (log2) [1] | relative integration efficiency (log2) [2] |
| --- | --- | --- |
| ACATTTGTTGATACAACCATAAAATGATAATTACACCCATAAATTGATATTGCTCAGTGGGTATTTAACTATAACGCTCTGATCATAGTCAGACCAACATTGCTACGACCCGTATTCGCACCGACAC | -0.891 ± 0.23 | 2.58 ± 0.34 |
| ACATTTGTTGATACAACCATAAAATGATAATTACACCCATAAATTGATCATTATCACCCCCAATTTAACTATAACGCTCTGATCATAGTCAGACCAACATTGCTACGACCCGTATTCGCACCGACAC | -1.35 ± 0.22 | 1.9 ± 0.065 |
| ACATTTGTTGATACAACCATAAAATGATAATTACACCCATAAATTGATCCGGATCACACCCATAAATTGATATTGCCTCTGATCATAGTCAGACCAACATTGCTACGACCCGTATTCGCACCGACAC | -0.929 ± 0.16 | -0.388 ± 0.14 |
| ACATTTGTTGATACAACCATAAAATGATAATTACACCCATAAATTGATCCGGCGACACAAACGCCCGGTCGCGGTAAGAGGATCATAGTCAGACCAACATTGCTACGACCCGTATTCGCACCGACAC | -0.942 ± 0.11 | 2.09 ± 0.1 |
| ACATTTGTTGATACAACCATAAAATGATAATTACACCCATAAATTGATCCTTATCACACCCATAAATTGATATTGCCTCTGATCATAGTCAGACCAACATTGCTACGACCCGTATTCGCACCGACAC | -0.973 ± 0.3 | -0.418 ± 0.47 |
| ACATTTGTTGATACAACCATAAAATGATAATTACACCCATAAATTGATTCACACCCATAAATTGATATTGCCTCTGATCATAGTCAGACCAACATTGCTACGACCCGTATTCGCACCGACACTGACT | -1.49 ± 0.24 | 2.09 ± 0.12 |
| ACATTTGTTGATACAACCATAAAATGATAATTACACCCATAAATTGATTTAAATCACACCCATAAATTGATATTGCCTCTGATCATAGTCAGACCAACATTGCTACGACCCGTATTCGCACCGACAC | -0.801 ± 0.11 | -0.261 ± 0.15 |
| ACATTTGTTGATACAACCATAAAATGATAATTACACCCATAAATTGATTTTTATCACACCCATAAATTGATATTGCCTCTGATCATAGTCAGACCAACATTGCTACGACCCGTATTCGCACCGACAC | -0.629 ± 0.28 | 0.0005 ± 0.35 |
| ACATTTGTTGATACAACCATAAAATGATAATTACACCCATAAATTGCGAATTATCACACCCATAAATTGATATTGCCTCTGATCATAGTCAGACCAACATTGCTACGACCCGTATTCGCACCGACAC | -0.3539 ± 0.00067 | -0.682 ± 0.11 |
| ACATTTGTTGATACAACCATAAAATGATAATTACACCCATAAATTGCGCCGGCGACACAAACGCCCGGTCGCGGTAAGAGGATCATAGTCAGACCAACATTGCTACGACCCGTATTCGCACCGACAC | -1.38 ± 0.23 | 1.62 ± 0.053 |
| ACATTTGTTGATACAACCATAAAATGATAATTACACCCATAAATTGCGCCTTATCACACCCATAAATTGATATTGCCTCTGATCATAGTCAGACCAACATTGCTACGACCCGTATTCGCACCGACAC | -1.39 ± 0.2 | -0.939 ± 0.25 |
| ACATTTGTTGATACAACCATAAAATGATAATTACACCCATAAATTGTAAATTATCACACCCATAAATTGATATTGCCTCTGATCATAGTCAGACCAACATTGCTACGACCCGTATTCGCACCGACAC | -0.602 ± 0.1 | -0.553 ± 0.24 |
| ACATTTGTTGATACAACCATAAAATGATAATTACACCCATAAATTGTATTTTATCACACCCATAAATTGATATTGCCTCTGATCATAGTCAGACCAACATTGCTACGACCCGTATTCGCACCGACAC | -0.924 ± 0.063 | -0.327 ± 0.39 |
| ACATTTGTTGATACAACCATAAAATGATAATTACACCCATAAATTTATTATTATCACACCCAATTTAACTATAACGCTCTGATCATAGTCAGACCAACATTGCTACGACCCGTATTCGCACCGACAC | -2.3 ± 0.59 | 1.56 ± 0.26 |
| ACATTTGTTGATACAACCATAAAATGATAATTACACCCATAAATTTCGCATTATCACACCCATAAATTGATATTGCCTCTGATCATAGTCAGACCAACATTGCTACGACCCGTATTCGCACCGACAC | -1.91 ± 0.14 | -1.39 ± 0.6 |
| ACATTTGTTGATACAACCATAAAATGATAATTACACCCATAAATTTCGCCGGCGACACAAACGCCCGGTCGCGGTAAGAGGATCATAGTCAGACCAACATTGCTACGACCCGTATTCGCACCGACAC | -2.05 ± 0.15 | 0.788 ± 0.1 |
| ACATTTGTTGATACAACCATAAAATGATAATTACACCCATAAATTTCTAATTATCACACCCATAAATTGATATTGCCTCTGATCATAGTCAGACCAACATTGCTACGACCCGTATTCGCACCGACAC | -0.945 ± 0.17 | -0.772 ± 0.23 |
